From paper PMC3501478, “Structure of the Human Discs Large 1 PDZ2– Adenomatous Polyposis Coli Cytoskeletal Polarity Complex: Insight into Peptide Engagement and PDZ Clustering” (PLoS ONE, 2012)
No end group written: not given here. TMR = tetramethyl rhodamine

Molecular target: T1, human Discs Large 1 (hDlg1) PDZ2 domain, residues 310-407 (human, UniProt Q12959 310-407)
T1 construct: N-terminal gly-ser cloning artifact left on the PDZ2 domain after thrombin cleavage of GST; human Discs Large 1 (Dlg1), PDZ2 domain, residues 310-407; synthetic gene with E. coli codon usage in pGEX-2T; In the final model chain A holds residues 310-406, with R310 modelled as alanine; also called hDlg PDZ2; source: E. coli BL21 DE3 pLysS, purified (Glutathione Sepharose, thrombin cleavage, SP …)
Test: crystal structure; 1.4 mM Dlg1 PDZ2 incubated with 1.7 mM APC C-terminal peptide (1:1.2) in 100 mM NaCl, 25 mM Tris pH 7.0, 0.1% beta-mercaptoethanol; hanging drop, 200 mM sodium acetate, 100 mM sodium cacodylate pH 6.25, 28% PEG 8000, 20°C; space group P212121, 2.0 Å
Conditions: both partners purified

T1 sequence (Q12959 other isoform, or with tags, fused parts or gaps): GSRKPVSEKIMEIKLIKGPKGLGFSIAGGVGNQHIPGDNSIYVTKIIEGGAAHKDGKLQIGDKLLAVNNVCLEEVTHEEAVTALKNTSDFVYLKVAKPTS

binding result: binds
B1: APC C-terminal peptide RHSGSYLVTSV (residues 2833-2843) with N-terminal tetramethyl rhodamine (peptide)
peptide: {TMR}-RHSGSYLVTSV
notes: human Adenomatous Polyposis Coli (APC), C-terminal 11 residues 2833-2843 of the 2843 amino acid protein; Only residues 2838-2843 are seen in the electron density; the TMR fluorophore and the N-terminal five residues are not; also called APC peptide; TMR-APC peptide; source: synthetic peptide (Yale Keck Biotechnology Resource Laboratory), purified by HPLC
